Test results as given in patent publication US20260085105A1 (Amgen, published 2026).

Experiments:
[1] = biological target: T1, HERC4 peptide on HLA-A*02:01 (human); assay: killing
T1 peptide: KVLEILHRV

[2] = biological target: T2, PSME2 peptide on HLA-A*02:01 (human); assay: killing
T2 peptide: KVLERVNAV

[3] = biological target: T3, TP2 peptide on HLA-A*02:01 (human); assay: killing
T3 peptide: KILEDVVGV

[4] = biological target: T4, HTR5A peptide on HLA-A*02:01 (human); assay: killing
T4 peptide: KVLETLVTV

[5] = biological target: T5, RG1L peptide on HLA-A*02:01 (human); assay: killing
T5 peptide: FLLETVVRV

[6] = biological target: T6, CNOT1 peptide on HLA-A*02:01 (human); assay: killing
T6 peptide: KVLGIVVGV

[7] = biological target: T7, ATAD2 peptide on HLA-A*02:01 (human); assay: killing
T7 peptide: KILEALQRV

[8] = biological target: T8, GPC5 peptide on HLA-A*02:01 (human); assay: killing
T8 peptide: KLLEQVNRI

[9] = biological target: T9, MIA3 peptide on HLA-A*02:01 (human); assay: killing
T9 peptide: KVLDKVFRA

[10] = biological target: T10, SYNE3 peptide on HLA-A*02:01 (human); assay: killing
T10 peptide: KLLDLQVRV

[11] = biological target: T11, ANO5 peptide on HLA-A*02:01 (human); assay: killing
T11 peptide: IVMEHVVFL

[12] = biological target: T12, AXIN1 peptide on HLA-A*02:01 (human); assay: killing
T12 peptide: ILDEHVQRV

[13] = biological target: T13, GRP78 peptide on HLA-A*02:01 (human); assay: killing
T13 peptide: KVTHAVVTV

[14] = biological target: T14, PTRF peptide on HLA-A*02:01 (human); assay: killing
T14 peptide: KLLEKVRKV

[15] = biological target: T15, TRMT1L peptide on HLA-A*02:01 (human); assay: killing
T15 peptide: VALEHFVLV

[16] = biological target: T16, KIAA1033 peptide on HLA-A*02:01 (human); assay: killing
T16 peptide: KVLNKVITV

[17] = biological target: T17, NSD1 peptide on HLA-A*02:01 (human); assay: killing
T17 peptide: KVQEQVHKV

[18] = biological target: T18, HNRNPR peptide on HLA-A*02:01 (human); assay: killing
T18 peptide: KVWGNVVTV

[19] = biological target: T19, TSC1 peptide on HLA-A*02:01 (human); assay: killing
T19 peptide: SLLGHVIRL

[20] = biological target: T20, MADD peptide on HLA-A*02:01 (human); assay: killing
T20 peptide: ILLEHKVVL

[21] = biological target: T21, MAGE-A4 (100% identical in MAGEA8) peptide on HLA-A*02:05 (human); assay: killing
T21 peptide: KVLEHVVRV

[22] = biological target: T22, MAGE-A4 (100% identical in MAGEA8) peptide on HLA-A*02:07 (human); assay: killing
T22 peptide: KVLEHVVRV

[23] = biological target: T23, MAGE-A4 (100% identical in MAGEA8) peptide on HLA-A*02:01 (human); assay: cells that express the antigen: NCI-H1755; TCR-Ts of three donors; full-length, on cells
T23 peptide: KVLEHVVRV

B1: TCR3 of Tables 1A and 1B (TCR2 of the examples) (TCR, V domains shown)
Valpha: GESVGLHLPTLSVQEGDNSIINCAYSNSASDYFIWYKQESGKGPQFIIDIRSNMDKRQGQRVTVLLNKTVKHLSLQIAATQPGDSAVYFCAEASPRQDTGRRALTFGSGTRLQVQP
Vbeta: DAGVTQSPTHLIKTRGQQVTLRCSPKSGHDTVSWYQQALGQGPQFIFQYYEEEERQRGNFPDRFSGHQFPNYSSELNVNALLLGDSALYLCASSLWTGSGELFFGEGSRLTVL
B1: no recognition [1]; no recognition [2]; no recognition [3]. B1: no recognition [4]; no recognition [5]; no recognition [6]. B1: no recognition [7]; no recognition [8]; no recognition [9]. B1: no recognition [10]; no recognition [11]; no recognition [12]. B1: no recognition [13]; no recognition [14]; no recognition [15]. B1: no recognition [16]; no recognition [17]; no recognition [18]. B1: no recognition [19]; no recognition [20]; recognises [21]. The binding result [22] was “recognises” and the “E:T EC50” value [23] was 0.01 effector:target ratio.
